In PMC6851316, “The C-terminal dimerization domain of the respiratory mucin MUC5B functions in mucin stability and intracellular packaging before secretion” (The Journal of Biological Chemistry, 2019):

T1: MUC5B C-terminal construct consisting of D4-B-C-CK (CT5B) (human, UniProt Q9HC84 4955-5762)
T1 construct: MUC5B, human, UniProtKB Q9HC84, D4-B-C-CK domains, residues 4955-5762; Mainly a disulfide-linked dimer with a small proportion of monomer; The dimer was used for cryo-EM, SPR (amine-coupled to a CM5 chip) and the homotypic tests; also called C-terminal dimerization domain of MUC5B; dimeric CT5B
T1 sequence (looked up): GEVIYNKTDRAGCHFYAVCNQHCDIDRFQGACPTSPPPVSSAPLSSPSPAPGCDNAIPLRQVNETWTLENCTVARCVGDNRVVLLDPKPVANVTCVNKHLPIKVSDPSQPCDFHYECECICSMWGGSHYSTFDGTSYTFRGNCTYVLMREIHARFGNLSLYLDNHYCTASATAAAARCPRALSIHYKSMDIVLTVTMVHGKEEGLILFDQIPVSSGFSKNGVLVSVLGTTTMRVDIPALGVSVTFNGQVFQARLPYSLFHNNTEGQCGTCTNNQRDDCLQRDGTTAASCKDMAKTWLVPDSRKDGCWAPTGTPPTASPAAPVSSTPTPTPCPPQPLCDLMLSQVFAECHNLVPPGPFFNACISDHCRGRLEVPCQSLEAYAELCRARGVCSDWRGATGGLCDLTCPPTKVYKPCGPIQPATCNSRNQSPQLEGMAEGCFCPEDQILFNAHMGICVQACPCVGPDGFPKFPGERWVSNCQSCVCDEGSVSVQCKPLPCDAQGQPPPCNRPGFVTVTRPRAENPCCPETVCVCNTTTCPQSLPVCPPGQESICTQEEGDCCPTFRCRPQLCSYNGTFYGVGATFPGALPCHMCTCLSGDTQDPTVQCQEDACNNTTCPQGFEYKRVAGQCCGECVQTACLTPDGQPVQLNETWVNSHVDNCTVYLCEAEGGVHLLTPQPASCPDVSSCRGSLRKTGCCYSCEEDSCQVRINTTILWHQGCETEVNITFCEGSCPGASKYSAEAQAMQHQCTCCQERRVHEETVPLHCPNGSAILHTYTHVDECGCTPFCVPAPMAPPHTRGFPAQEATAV

B1: MUC5B N-terminal construct consisting of D1-D2-D′-D3 (NT5B) (domain or fragment)
chain: QGPVEPSWENAGHTMDGGAPTSSPTRRVSFVPPVTVFPSLSPLNPAHNGRVCSTWGDFHYKTFDGDVFRFPGLCNYVFSEHCRAAYEDFNVQLRRGLVGSRPVVTRVVIKAQGLVLEASNGSVLINGQREELPYSRTGLLVEQSGDYIKVSIRLVLTFLWNGEDSALLELDPKYANQTCGLCGDFNGLPAFNEFYAHNARLTPLQFGNLQKLDGPTEQCPDPLPLPAGNCTDEEGICHRTLLGPAFAECHALVDSTAYLAACAQDLCRCPTCPCATFVEYSRQCAHAGGQPRNWRCPELCPRTCPLNMQHQECGSPCTDTCSNPQRAQLCEDHCVDGCFCPPGTVLDDITHSGCLPLGQCPCTHGGRTYSPGTSFNTTCSSCTCSGGLWQCQDLPCPGTCSVQGGAHISTYDEKLYDLHGDCSYVLSKKCADSSFTVLAELRKCGLTDNENCLKAVTLSLDGGDTAIRVQADGGVFLNSIYTQLPLSAANITLFTPSSFFIVVQTGLGLQLLVQLVPLMQVFVRLDPAHQGQMCGLCGNFNQNQADDFTALSGVVEATGAAFANTWKAQAACANARNSFEDPCSLSVENENYARHWCSRLTDPNSAFSRCHSIINPKPFHSNCMFDTCNCERSEDCLCAALSSYVHACAAKGVQLSDWRDGVCTKYMQNCPKSQRYAYVVDACQPTCRGLSEADVTCSVSFVPVDGCTCPAGTFLNDAGACVPAQECPCYAHGTVLAPGEVVHDEGAVCSCTGGKLSCLGASLQKSTGCAAPMVYLDCSNSSAGTPGAECLRSCHTLDVGCFSTHCVSGCVCPPGLVSDGSGGCIAEEDCPCVHNEATYKPGETIRVDCNTCTCRNRRWECSHRLCLGTCVAYGDGHFITFDGDRYSFEGSCEYILAQDYCGDNTTHGTFRIVTENIPCGTTGTTCSKAIKLFVESYELILQEGTFKAVARGPGGDPPYKIRYMGIFLVIETHGMAVSWDRKTSVFIRLHQDYKGRVCGLCGNFDDNAINDFATRSRSVVGDALEFGNSWKLSPSCPDALAPKDPCTANPFRKSWAQKQCSILHGPTFAACRSQVDSTKYYEACVNDACACDSGGDCECFCTAVAAYAQACHDAGLCVSWRTPDTCPLFCDFYNPHGGCEWHYQPCGAPCLKTCRNPSGHCLVDLPGLEGCYPKCPPSQPFFNEDQMKCVAQCGCYDKDGNYYDVGARVPTAENCQSCNCTPSGIQCA
modifications: RED-NHS (amine reactive) fluorescent dye, in the MST experiments only

Tests used:
[1] = biological target: MUC5B C-terminal construct consisting of D4-B-C-CK (CT5B) (human) (UniProt Q9HC84); assay: AUC; sedimentation velocity; CT5B with 5 mM CaCl2 overnight at 4 °C, 150 mM NaCl, 25 mM HEPES pH 7.4 or 25 mM MES pH 6 or pH 5; tests the step dimer to higher multimers
[2] = biological target: MUC5B C-terminal construct consisting of D4-B-C-CK (CT5B) (human) (UniProt Q9HC84); assay: SEC-MALS; CT5B incubated overnight at 4 °C in 5 mM CaCl2 or 5 mM EGTA, 150 mM NaCl, 25 mM HEPES pH 7.4 or 25 mM MES pH 6 or 5; Superose 6 10/300 GL at room temperature; tests the step dimer to higher multimers
[3] = biological target: MUC5B C-terminal construct consisting of D4-B-C-CK (CT5B) (human) (UniProt Q9HC84); assay: SEC-MALS; recombinant CT5B on Superose 6 10/300 GL, 0.2 M NaCl, pH 7.4; step: monomer to disulfide-linked dimer
[4] = biological target: T1, MUC5B C-terminal construct consisting …; assay: SPR; single cycle kinetics, pH 7.4; CT5B immobilised on CM5 chip, NT5B 0, 5, 10, 15, 20 and 40 nM, HBS with 5 mM CaCl2 and 0.05% Tween 20; 1:1 Langmuir model; details: both partners purified
[5] = biological target: T1, MUC5B C-terminal construct consisting …; assay: MST; pH 6; 2.5 nM RED-NHS labelled NT5B, CT5B serially diluted 1:1 (starting concentration 6 μM); 25 mM HEPES, 150 mM NaCl, 0.05% Tween 20, with 5 mM CaCl2 or 5 mM EGTA; room temperature; KD model; details: both partners purified
[6] = biological target: T1, MUC5B C-terminal construct consisting …; assay: SPR; single cycle kinetics, pH 6; CT5B immobilised on CM5 chip, NT5B 0, 5, 10, 15, 20 and 40 nM, HBS with 5 mM CaCl2 and 0.05% Tween 20; 1:1 Langmuir model; details: both partners purified
[7] = biological target: T1, MUC5B C-terminal construct consisting …; assay: MST; pH 7.4; 2.5 nM RED-NHS labelled NT5B, CT5B serially diluted 1:1 (starting concentration 6 μM); 25 mM HEPES, 150 mM NaCl, 0.05% Tween 20, with 5 mM CaCl2 or 5 mM EGTA; room temperature; KD model; details: both partners purified

| Molecule | stoichiometry N [1] | stoichiometry N [2] | stoichiometry N [3] | Kd [4] | binding response, fold lower than at pH 6 [4] | Kd [5] | Kd [6] | Kd [7] |
| --- | --- | --- | --- | --- | --- | --- | --- | --- |
| MUC5B C-terminal construct consisting of D4-B-C-CK (CT5B) (from UniProt Q9HC84 4955-5762) (domain or fragment) | 2 | 2 | 2 | – | – | – | – | – |
| B1 | – | – | – | ~3 nM | 5 fold | 3 ± 1.4 nM | ~1 nM | 7.4 ± 1.5 nM |
